From the supplement of paper PMC10567573

B1: ZNF649 (parent)
chain: YQAGKPDALTKLEQGEPLWTLEDE

Variants of: B1
Assay: protein stability index of a GFP-peptide fusion (GPS, HEK-293T) (PSI 1-6); higher = more stable
Conditions: c terminus: a fixed tail appended
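Note: lentivirally expressed fusions sorted by FACS into six bins by GFP to DsRed ratio, PSI derived from sequencing read proportions per bin multiplied by bin number.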

Row | Variant | protein stability index
1 | YQAGKPDALTKLEQGFPLWTLEDE [E16F] | 2
2 | YQAGKPDALTKLEQGGPLWTLEDE [E16G] | 4.06
3 | YQAGKPDALTKLEQGSPLWTLEDE [E16S] | 4.38
4 | YQAGKPDALTKLEQGVPLWTLEDE [E16V] | 2.59
5 | YQAGKPDALTKLEQGWPLWTLEDE [E16W] | 2.49
6 | YQAGKPDALTKLEQGPPLWTLEDE [E16P] | 3.93
7 | YQAGKPDALTKLEQGLPLWTLEDE [E16L] | 3.66
8 | YQAGKPDALTKLEQGAPLWTLEDE [E16A] | 3.93
9 | YQAGKPDALTKLEQGYPLWTLEDE [E16Y] | 2.62
10 | YQAGKPDALTKLEQGMPLWTLEDE [E16M] | 1.92
11 | YQAGKPDALTKLEQGKPLWTLEDE [E16K] | 4.49
12 | YQAGKPDALTKLEQGEPLHTLEDE [W19H] | 5.72
13 | YQAGKPDALTKLEQGEPLLTLEDE [W19L] | 4.92
14 | YQAGKPDALTKLEQGEPLATLEDE [W19A] | 5.52
15 | YQAGKPDALTKLEQGEPLITLEDE [W19I] | 5.21
16 | YQAGKPDALTKLEQGEPLETLEDE [W19E] | 5.34
17 | YQAGKPDALTKLEQGEPLDTLEDE [W19D] | 5.31
18 | YQAGKPDALTKLEQGEPLKTLEDE [W19K] | 4.98
19 | YQAGKPDALTKLEQGEPLFTLEDE [W19F] | 4.86
20 | YQAGKPDALTKLEQGEPLCTLEDE [W19C] | 4.86
21 | YQAGKPDALTKLEQMEPLWTLEDE [G15M] | 3.97
22 | YQAGKPDALTKLEQKEPLWTLEDE [G15K] | 4.4
23 | YQAGKPDALTKLEQDEPLWTLEDE [G15D] | 4.6
24 | YQAGKPDALTKLEQHEPLWTLEDE [G15H] | 4.31

Row | Variant | protein stability index
25 | YQAGKPDALTKLEQEEPLWTLEDE [G15E] | 4.88
26 | YQAGKPDALTKLEQVEPLWTLEDE [G15V] | 4.62
27 | YQAGKPDALTKLEQNEPLWTLEDE [G15N] | 4.11
28 | YQAGKPDALTKLEQAEPLWTLEDE [G15A] | 3.84
29 | YQAGKPDALTKLEQLEPLWTLEDE [G15L] | 4.25
30 | YQAGKPDALTKLEQPEPLWTLEDE [G15P] | 3.89
31 | YQAGKPDALTKLEQREPLWTLEDE [G15R] | 2.82
32 | YQAGKPDALTKLEQSEPLWTLEDE [G15S] | 4.21
33 | YQAGKPDALTKLEQCEPLWTLEDE [G15C] | 3.9
34 | YQAGKPDALTKLEQFEPLWTLEDE [G15F] | 3.74
35 | YQAGKPDALTKLEQYEPLWTLEDE [G15Y] | 3.52
36 | YQAGKPDALTKLEQWEPLWTLEDE [G15W] | 3.39
37 | YQAGKPDALTKLEQIEPLWTLEDE [G15I] | 4.15
38 | YQAGKPDALTKLEQQEPLWTLEDE [G15Q] | 4.31
39 | YQAGKPDALTKLEQTEPLWTLEDE [G15T] | 4.15
40 | YQAGKPDALTKLEQGEPQWTLEDE [L18Q] | 5.19
41 | YQAGKPDALTKLEQGEPHWTLEDE [L18H] | 5.06
42 | YQAGKPDALTKLEQGEPWWTLEDE [L18W] | 3.59
43 | YQAGKPDALTKLEQGEPRWTLEDE [L18R] | 4.96
44 | YQAGKPDALTKLEQGEPGWTLEDE [L18G] | 4.83
45 | YQAGKPDALTKLEQGEPYWTLEDE [L18Y] | 3.95
46 | YQAGKPDALTKLEQGEPSWTLEDE [L18S] | 5.32
47 | YQAGKPDALTKLEQGEPKWTLEDE [L18K] | 5.03
48 | YQAGKPDALTKLEQGEPTWTLEDE [L18T] | 5.06

Row | Variant | protein stability index
49 | YQAGKPDALTKLEQGEPFWTLEDE [L18F] | 3.54
50 | YQAGKPDALTKLEQGEPAWTLEDE [L18A] | 4.5
51 | YQAGKPDALTKLEQGEPEWTLEDE [L18E] | 5.49
52 | YQAGKPDALTKLEQGEPCWTLEDE [L18C] | 4.91
53 | YQAGKPDALTKLEQGEPMWTLEDE [L18M] | 3.84
54 | YQAGKPDALTKLEQGEPDWTLEDE [L18D] | 5.11
55 | YQAGKPDALTKLEQGEPPWTLEDE [L18P] | 5.35
56 | YQAGKPDALTKLEQGEPIWTLEDE [L18I] | 3.53
57 | YQAGKPDALTQLEQGEPLWTLEDE [K11Q] | 4.76
58 | YQAGKPDALTHLEQGEPLWTLEDE [K11H] | 4.78
59 | YQAGKPDALTFLEQGEPLWTLEDE [K11F] | 3.37
60 | YQAGKPDALTCLEQGEPLWTLEDE [K11C] | 4.45
61 | YQAGKPDALTYLEQGEPLWTLEDE [K11Y] | 3.51
62 | YQAGKPDALTNLEQGEPLWTLEDE [K11N] | 4.51
63 | YQAGKPDALTLLEQGEPLWTLEDE [K11L] | 4.23
64 | YQAGKPDALTDLEQGEPLWTLEDE [K11D] | 4.86
65 | YQAGKPDALTELEQGEPLWTLEDE [K11E] | 4.06
66 | YQAGKPDALTRLEQGEPLWTLEDE [K11R] | 4.14
67 | YQAGKPDALTSLEQGEPLWTLEDE [K11S] | 4.19
68 | YQAGKPDALTPLEQGEPLWTLEDE [K11P] | 5.28
69 | YQAGKPDALTALEQGEPLWTLEDE [K11A] | 4.66
70 | YQAGKPDALTTLEQGEPLWTLEDE [K11T] | 4.09
71 | YQAGKPDALTILEQGEPLWTLEDE [K11I] | 4.54
72 | YQAGKPDALTMLEQGEPLWTLEDE [K11M] | 4.77

Row | Variant | protein stability index
73 | YQAGKPDALTWLEQGEPLWTLEDE [K11W] | 2.86
74 | YQAGKPDALTVLEQGEPLWTLEDE [K11V] | 4.69
75 | YQAGKPDALTGLEQGEPLWTLEDE [K11G] | 4.21
76 | YQAGKPDWLTKLEQGEPLWTLEDE [A8W] | 1.18
77 | YQAGKPDVLTKLEQGEPLWTLEDE [A8V] | 3.51
78 | YQAGKPDALTKWEQGEPLWTLEDE [L12W] | 3.75
79 | YQAGKPDALTKREQGEPLWTLEDE [L12R] | 4.4
80 | YQAGKPDALTKQEQGEPLWTLEDE [L12Q] | 4.56
81 | YQAGKPDALTKFEQGEPLWTLEDE [L12F] | 4.37
82 | YQAGKPDALTKKEQGEPLWTLEDE [L12K] | 4.17
83 | YQAGKPDALTKCEQGEPLWTLEDE [L12C] | 5.11
84 | YQAGKPDALTKAEQGEPLWTLEDE [L12A] | 4.95
85 | YQAGKPDALTKYEQGEPLWTLEDE [L12Y] | 4.68
86 | YQAGKPDALTKHEQGEPLWTLEDE [L12H] | 4.73
87 | YQAGKPDALTKNEQGEPLWTLEDE [L12N] | 4.78
88 | YQAGKPDALTKMEQGEPLWTLEDE [L12M] | 4.54
89 | YQAGKPDALTKSEQGEPLWTLEDE [L12S] | 4.52
90 | YQAGKPDALTKPEQGEPLWTLEDE [L12P] | 4.38
91 | YQAGKPDALTKVEQGEPLWTLEDE [L12V] | 4.32
92 | YQAGKPDALTKTEQGEPLWTLEDE [L12T] | 4.22
93 | YQAGKPDALTKIEQGEPLWTLEDE [L12I] | 4.56
94 | YQAGKPDALTKGEQGEPLWTLEDE [L12G] | 4.83
